Where no end group is shown, it is not given here.
Molecular target: T1, TLR10 (Homo sapiens, UniProt Q9BXR5)
T1 sequence (Q9BXR5 20-576): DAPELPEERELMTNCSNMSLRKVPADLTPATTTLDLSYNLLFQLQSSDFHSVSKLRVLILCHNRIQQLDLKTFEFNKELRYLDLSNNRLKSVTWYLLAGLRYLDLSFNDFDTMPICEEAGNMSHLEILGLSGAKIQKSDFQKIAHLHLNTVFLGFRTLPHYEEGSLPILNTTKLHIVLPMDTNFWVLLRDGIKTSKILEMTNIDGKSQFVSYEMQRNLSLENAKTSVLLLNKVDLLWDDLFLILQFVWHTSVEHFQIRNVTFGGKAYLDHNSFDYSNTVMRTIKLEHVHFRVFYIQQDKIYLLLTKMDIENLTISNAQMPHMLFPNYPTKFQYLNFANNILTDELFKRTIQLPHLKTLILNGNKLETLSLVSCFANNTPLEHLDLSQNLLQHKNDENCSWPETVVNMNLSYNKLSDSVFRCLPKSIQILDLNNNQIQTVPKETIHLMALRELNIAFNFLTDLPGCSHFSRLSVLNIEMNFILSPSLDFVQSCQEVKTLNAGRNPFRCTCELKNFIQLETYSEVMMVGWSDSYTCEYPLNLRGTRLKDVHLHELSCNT
Assay: mRNA display affinity selection against TLR10, NGS abundance
Assay type: binding
Set-up: Chimera protein (extracellular domain, amino acid 20-576;); Fc (chimera); purchased R&D system #6619-TR-050
Details: Top100 selection hits, NGS

## AEIHAWGLRI
TLR10 selection pulldown (-)
  Library fraction: 0.00117
  Raw reads: 139

## AFQRRDDFRWVI
TLR10 selection pulldown (+)
  Library fraction: 0.00019
  Raw reads: 19

## AINFELTNKIAF
TLR10 selection pulldown (+)
  Library fraction: 0.008
  Raw reads: 804
TLR10 selection pulldown (-)
  Library fraction: 0.013
  Raw reads: 1556

## AIRFSNVLAL
TLR10 selection pulldown (+)
  Library fraction: 0.00022
  Raw reads: 21

## AIYNRYGGNIAS
TLR10 selection pulldown (-)
  Library fraction: 0.00153
  Raw reads: 182

## AIYYSRLNKVAF
TLR10 selection pulldown (+)
  Library fraction: 0.00018
  Raw reads: 18

## AKLIYRTQGIMG
TLR10 selection pulldown (+)
  Library fraction: 0.00211
  Raw reads: 206

## ALELKHVVVV
TLR10 selection pulldown (+)
  Library fraction: 0.00049
  Raw reads: 48

## ALKFELLRKVAF
TLR10 selection pulldown (-)
  Library fraction: 0.00278
  Raw reads: 332

## ALLIKQTNMLYC
TLR10 selection pulldown (+)
  Library fraction: 0.023
  Raw reads: 2215
TLR10 selection pulldown (-)
  Library fraction: 0.018
  Raw reads: 2188

## ALRFPHLGMMAF
TLR10 selection pulldown (+)
  Library fraction: 0.00026
  Raw reads: 25

## ALVTQHVNVY
TLR10 selection pulldown (-)
  Library fraction: 0.00162
  Raw reads: 193

## AMKLSARYIAF
TLR10 selection pulldown (-)
  Library fraction: 0.00072
  Raw reads: 86

## ANYHGNVPWSC
TLR10 selection pulldown (-)
  Library fraction: 0.00047
  Raw reads: 56

## AQMYPIQNKIAF
TLR10 selection pulldown (+)
  Library fraction: 0.00064
  Raw reads: 62
TLR10 selection pulldown (-)
  Library fraction: 0.00063
  Raw reads: 75

## ASFVIGQLLVN
TLR10 selection pulldown (-)
  Library fraction: 0.00055
  Raw reads: 66

## ASINRYGGNAAS
TLR10 selection pulldown (+)
  Library fraction: 0.077
  Raw reads: 7526
TLR10 selection pulldown (-)
  Library fraction: 0.042
  Raw reads: 4957

## ATIDLQLRRLTL
TLR10 selection pulldown (-)
  Library fraction: 0.00067
  Raw reads: 80

## AVEFRLQRAIAY
TLR10 selection pulldown (+)
  Library fraction: 0.00163
  Raw reads: 159
TLR10 selection pulldown (-)
  Library fraction: 0.00093
  Raw reads: 111

## AVEFSNAVVM
TLR10 selection pulldown (-)
  Library fraction: 0.00055
  Raw reads: 66

## AVIVWAKQGIKG
TLR10 selection pulldown (+)
  Library fraction: 0.0006
  Raw reads: 58

## AVRNKYGGNAAS
TLR10 selection pulldown (+)
  Library fraction: 0.054
  Raw reads: 5293
TLR10 selection pulldown (-)
  Library fraction: 0.012
  Raw reads: 1475

## CESCCYVIDFEF
TLR10 selection pulldown (-)
  Library fraction: 0.00343
  Raw reads: 409

## CIIFVRQNKCAF
TLR10 selection pulldown (-)
  Library fraction: 0.00053
  Raw reads: 63

## CITFQLTRKVAF (not fully specified)
TLR10 selection pulldown (-)
  Library fraction: 0.00554
  Raw reads: 661

## CLGISNRIVVV
TLR10 selection pulldown (+)
  Library fraction: 0.00017
  Raw reads: 17

## CLPFPLQMRIAY
TLR10 selection pulldown (+)
  Library fraction: 0.00022
  Raw reads: 21

## CMIFHTQLKIAF
TLR10 selection pulldown (+)
  Library fraction: 0.00053
  Raw reads: 52
TLR10 selection pulldown (-)
  Library fraction: 0.004
  Raw reads: 470

## CMSFYLQRKIAI
TLR10 selection pulldown (-)
  Library fraction: 0.00142
  Raw reads: 169

## CNPYRGNIGW
TLR10 selection pulldown (+)
  Library fraction: 0.006
  Raw reads: 614
TLR10 selection pulldown (-)
  Library fraction: 0.016
  Raw reads: 1871

## CVFFPHLNKIAL
TLR10 selection pulldown (-)
  Library fraction: 0.022
  Raw reads: 2623

## CVHFCWQRKLAY
TLR10 selection pulldown (-)
  Library fraction: 0.00152
  Raw reads: 181

## CVLVNNRYLVH
TLR10 selection pulldown (+)
  Library fraction: 0.00056
  Raw reads: 55

## FRGVLIRSS
TLR10 selection pulldown (+)
  Library fraction: 0.00018
  Raw reads: 18

## FVLNGRYLVM
TLR10 selection pulldown (+)
  Library fraction: 0.0007
  Raw reads: 68

## GCLHGNVPVYY
TLR10 selection pulldown (+)
  Library fraction: 0.00224
  Raw reads: 218
TLR10 selection pulldown (-)
  Library fraction: 0.00272
  Raw reads: 324

## GDLRGNVCMWL
TLR10 selection pulldown (+)
  Library fraction: 0.00021
  Raw reads: 20

## GLLHGNVPTWI
TLR10 selection pulldown (-)
  Library fraction: 0.002
  Raw reads: 232
